Data published in patent US8911953B2, “TDF-related compounds and analogs thereof, analogs and bioactive fragments” (Thrasos Innovation, Inc., priority 2005, dated 2014).
Entries after “also recorded” stand apart in the source; their conditions may differ.

Legend:
[1] = system: LNCaP human prostate cancer cells; assay: Smad phosphorylation in LNCaP prostate cancer cells (Western blot); format: cell-based; details: single agent, cultured LNCaP cells
Protocol: The detection of Smad phosphorylation by Western analysis, for example in LNCaP (prostate cancer cells) or EC (vascular endothelial cells) in culture medium can be examined after exposure to varying concentrations of TDFRP or control compounds. BMP-7 serves as a positive control. Cells are lysed in RIPA lysis buffer (50 mM Tris-HCl at pH 8.0, 150 mM NaCl, 1% NP-40, 0.5% sodium deoxycholate, 0.1% SDS) containing 1 mM PMSF, 1 mM sodium orthovanadate, and 10 ug/mL proteinase inhibitor cocktail. Lysates are incubated on ice for 15 minutes, centrifuged, and transferred supernatant to a clean tube. 50 to 100 ug is used for analysis by SDS-PAGE. Resolved proteins are electro transferred onto PVDF membrane. The blot is blocked by incubating in 3% non-fat dry milk prepared in PBS at room temperature for 1 hour with constant slow agitation. The blot is incubated with 1-2 ug/mL of primary antibody (rabbit anti-phospho-Smad 1) prepared in PBS-milk, overnight with agitation at 4 degree C., washed twice with PBS, and incubated with secondary antibody (anti rabbit HRP conjugated IgG, 1:3000 dilution) at room temperature for 2 hours with agitation. After washing in PBS-0.05% Tween 20 for 5 minutes and rinsing, Smad phosphorylation is detected via an HRP reaction according to manufacturer's instructions (FIGS. 2, 3, 18, 2X).
For detection of Smad phosphorylation by Western analysis, LNCaP (prostate cancer cells) or EC (vascular endothelial cells) in culture medium are exposed to varying concentrations of TDFRP or control compounds. BMP-7 served as a positive control. Cells are lysed in RIPA lysis buffer (50 mM Tris-HCl at pH 8.0, 150 mM NaCl, 1% NP-40, 0.5% sodium deoxycholate, 0.1% SDS) containing 1 mM PMSF, 1 mM sodium orthovanadate, and 10 ug/mL proteinase inhibitor cocktail. Lysates are incubated on ice for 15 minutes, centrifuged, and transferred supernatant to a clean tube. 50 to 100 ug is used for analysis by
SDS-PAGE. Resolved proteins are electro transferred onto PVDF membrane. The blot is blocked by incubating in 3% non-fat dry milk prepared in PBS at room temperature for 1 hour with constant slow agitation. The blot is incubated with 1-2 ug/mL of primary antibody (rabbit anti-phospho-Smad 1) prepared in PBS-milk, overnight with agitation at 4 degree C., washed twice with PBS, and incubated with secondary antibody (anti rabbit HRP conjugated IgG, 1:3000 dilution) at room temperature for 2 hours with agitation. After washing in PBS-0.05% Tween 20 for 5 minutes and rinsing, Smad phosphorylation is detected via an HRP reaction according to manufacturer's instructions (FIGS. 3, 27).
BMP signaling molecules co-administered with TDFRP compounds show synergistic or enhanced downstream signaling as detected by Smad phosphorylation. Smad phosphorylation was assessed by Western analysis in LNCaP (prostate cancer cells) or EC (vascular endothelial cells) cells in culture medium exposed to varying concentrations of TDFRP or control compounds. BMP-7 served as a positive control. Cells are lysed in RIPA lysis buffer (50 mM Tris-HCl at pH 8.0, 150 mM NaCl, 1% NP-40, 0.5% sodium deoxycholate, 0.1% SDS) containing 1 mM PMSF, 1 mM sodium orthovanadate, and 10 ug/mL proteinase inhibitor cocktail. Lysates are incubated on ice for 15 minutes, centrifuged, and transferred supernatant to a clean tube. 50 to 100 ug is used for analysis by SDS-PAGE. Resolved proteins are electro transferred onto PVDF membrane. […]

[2] = system: LNCaP; assay: Cancer cell proliferation, tritiated thymidine incorporation; format: cell-based, human; details: LNCaP cultured in vitro
Text: (§1) TDFRP Compound Inhibition of LNCaP Cancer Cell Proliferation. BMP-6 and a TDFRP compound (SEQ ID NO:45) inhibited the proliferation of prostate cancer cells (LNCaP and PC-3) cultured in vitro as detected by the incorporation of tritiated thymidine (a measure of cell proliferation.
(§2) Prostate cancer is one of the most common cancers in men. […] Moreover, it has been shown that BMP signals inhibit the growth and the proliferation of human prostate tumor cells by upregulating the cyclin-dependent kinase inhibitor (CDKI) p21 (CIP1/WAF1) and decreasing the activity of Cdk2, leading to hypophosphorylation of Rb proteins. TDFRP compounds have been screened in in vitro prostate and bladder cancer bioassays to assess growth inhibitory activity of the compounds (FIG. 3). ^3H-thymidine incorporation is used as a marker for cell proliferation activity in human prostate and bladder cancer cell lines. Cisplatin inhibits ^3H-thymidine incorporation, indicating a tumor-growth suppressive activity of cisplatin in both human prostate and bladder cancer cells. TDFRP compounds are assayed in these cancer cells for the ability to induce receptor-regulated Smad 1/5 phosphorylation in a dose-dependent manner (FIG.).
as §2, with “(FIGS. 3, 28).” for “(FIG. 3).”, “(FIGS. 3, 28).” for “(FIG.).”

[3] = system: PC-3; assay: as above; format: cell-based, human; details: PC-3 cultured in vitro
Text: as §1, §2
as §2, with “(FIGS. 3, 28).” for “(FIG. 3).”, “(FIGS. 3, 28).” for “(FIG.).”

B1: BMP-6: bone morphogenetic protein BMP-6 (Vgr-1) (protein, UniProt P22004 375-513, looked up)
Bone morphogenetic protein 6: SASSRRRQQSRNRSTQSQDVARVSSASDYNSSELKTACRKHELYVSFQDLGWQDWIIAPKGYAANYCDGECSFPLNAHMNATNHAIVQTLVHLMNPEYVPKPCCAPTKLNAISVLYFDDNSNVILKKYRNMVVRACGCH
[1]
  Smad phosphorylation and activation: induced; also recorded: Smad 1, 5, 8 phosphorylation and activation
[2]
  proliferation (incorporation of tritiated thymidine): inhibited
[3]
  proliferation (incorporation of tritiated thymidine): inhibited
